Experimental data from paper PMC8713289.

Tests used:
[1] = biological target: Interferon alpha-2a (human) (UniProt P01563); assay: AUC; sedimentation velocity, 50000 rpm, histidine pH 5, 0 or 140 mM NaCl, 0.8, 0.4 and 0.2 mg/mL (A280 = 1, 0.5, 0.25); monomer with a dimer in fast equilibrium with higher oligomers
[2] = biological target: Interferon alpha-2a (human) (UniProt P01563); assay: AUC; sedimentation velocity, 50000 rpm, histidine pH 7.5, 0 or 140 mM NaCl, 0.8, 0.4 and 0.2 mg/mL (A280 = 1, 0.5, 0.25); dimers and larger oligomers in concentration-dependent equilibrium

## Interferon alpha-2a (from UniProt P01563 24-188) (natural protein)
[1]
  stoichiometry N: > 2 >=
[2]
  stoichiometry N: 2
